Tests used:
[1] = molecular target: mycoplasma pneumonia P30 (purified protein P30Ag produced by expressing amino acids 96-274 with Escherichia coli) (Mycoplasma pneumoniae) (UniProt P75330); experiment: ELISA, P30Ag coated at 4 ng/mL, antibody 5 ug/mL, anti-mouse IgG-peroxidase
[2] = molecular target: full-length protein mycoplasma pneumonia P30 (amino acids 1-274; SEQ ID NO: 1) (Mycoplasma pneumoniae) (UniProt P75330); experiment: ELISA, full-length P30 coated, 5 ug/mL P30(a), no peptide (0 point of the peptide 1 series)
[3] = molecular target: full-length protein mycoplasma pneumonia P30 (amino acids 1-274; SEQ ID NO: 1) (Mycoplasma pneumoniae) (UniProt P75330); experiment: ELISA, full-length P30 coated, 5 ug/mL P30(a), no peptide (0 point of the peptide 2 series)
[4] = molecular target: mycoplasma pneumonia P30 (purified protein P30Ag produced by expressing amino acids 96-274 with Escherichia coli) (Mycoplasma pneumoniae) (UniProt P75330); experiment: immunochromatography sandwich, P30(a)-gold label and P30(a) detection line, P30Ag 10 pg/mL, no peptide
[5] = molecular target: P30 protein of Mycoplasma pneumoniae as present in Mycoplasma pneumoniae analytes (deactivated Mycoplasma pneumoniae Antigen (FH), Meridian; pharyngeal swabs of infected subjects) (Mycoplasma pneumoniae) (UniProt P75330); experiment: immunochromatography sandwich (Ex. 1), label P30(a), detection P30(a); pharyngeal swab Subject 1, diluted 20 times
[6] = molecular target: P30 protein of Mycoplasma pneumoniae as present in Mycoplasma pneumoniae analytes (deactivated Mycoplasma pneumoniae Antigen (FH), Meridian; pharyngeal swabs of infected subjects) (Mycoplasma pneumoniae) (UniProt P75330); experiment: immunochromatography sandwich (Ex. 1), label P30(a), detection P30(a); pharyngeal swab Subject 2, diluted 20 times
[7] = molecular target: mycoplasma pneumonia P30 (purified protein P30Ag produced by expressing amino acids 96-274 with Escherichia coli) (Mycoplasma pneumoniae) (UniProt P75330); experiment: immunochromatography sandwich (Ex. 3), label P30(a), detection P30(a); analyte P30Ag; Triton X-100/Tween 20 diluent
[8] = molecular target: P30 protein of Mycoplasma pneumoniae as present in Mycoplasma pneumoniae analytes (deactivated Mycoplasma pneumoniae Antigen (FH), Meridian; pharyngeal swabs of infected subjects) (Mycoplasma pneumoniae) (UniProt P75330); experiment: immunochromatography sandwich (Ex. 2), label P30(a), detection P30(a); pharyngeal swab Subject 1; Triton X-100/Tween 20 diluent
[9] = molecular target: P30 protein of Mycoplasma pneumoniae as present in Mycoplasma pneumoniae analytes (deactivated Mycoplasma pneumoniae Antigen (FH), Meridian; pharyngeal swabs of infected subjects) (Mycoplasma pneumoniae) (UniProt P75330); experiment: immunochromatography sandwich (Ex. 2), label P30(a), detection P30(a); pharyngeal swab Subject 2; Triton X-100/Tween 20 diluent
[10] = molecular target: P30 protein of Mycoplasma pneumoniae as present in Mycoplasma pneumoniae analytes (deactivated Mycoplasma pneumoniae Antigen (FH), Meridian; pharyngeal swabs of infected subjects) (Mycoplasma pneumoniae) (UniProt P75330); experiment: immunochromatography sandwich (Ex. 1), label P30(a), detection P30(a); deactivated Mycoplasma pneumoniae (FH); NP-40/MN-811 diluent
[11] = molecular target: P30 protein of Mycoplasma pneumoniae as present in Mycoplasma pneumoniae analytes (deactivated Mycoplasma pneumoniae Antigen (FH), Meridian; pharyngeal swabs of infected subjects) (Mycoplasma pneumoniae) (UniProt P75330); experiment: immunochromatography sandwich (Ex. 2), label P30(a), detection P30(a); deactivated Mycoplasma pneumoniae (FH); Triton X-100/Tween 20 diluent
[12] = molecular target: antibody P30(a) (Fucal Research product Mp-P30-3-AB); experiment: immunochromatography competition, 400 ng peptide 2 developed with P30Ag 10 pg/mL, P30(a) label and detection
[13] = molecular target: antibody P30(b) (Fucal Research product Mp-P30-9-AB); experiment: immunochromatography competition, 400 ng peptide 2 developed with P30Ag 10 pg/mL, P30(b) label and detection
[14] = molecular target: antibody P30(a) (Fucal Research product Mp-P30-3-AB); experiment: competitive inhibition ELISA, full-length P30 coated, 5 ug/mL P30(a) + peptide 2 at x1 the antibody concentration
[15] = molecular target: antibody P30(b) (Fucal Research product Mp-P30-9-AB); experiment: competitive inhibition ELISA, full-length P30 coated, 5 ug/mL P30(b) + peptide 2 at x1 the antibody concentration
[16] = molecular target: antibody P30(a) (Fucal Research product Mp-P30-3-AB); experiment: competitive inhibition ELISA, full-length P30 coated, 5 ug/mL P30(a) + peptide 2 at x10 the antibody concentration
[17] = molecular target: antibody P30(a) (Fucal Research product Mp-P30-3-AB); experiment: competitive inhibition ELISA, full-length P30 coated, 5 ug/mL P30(a) + peptide 2 at x20 the antibody concentration
[18] = molecular target: antibody P30(a) (Fucal Research product Mp-P30-3-AB); experiment: competitive inhibition ELISA, full-length P30 coated, 5 ug/mL P30(a) + peptide 2 at x40 the antibody concentration
[19] = molecular target: antibody P30(a) (Fucal Research product Mp-P30-3-AB); experiment: competitive inhibition ELISA, full-length P30 coated, 5 ug/mL P30(a) + peptide 2 at x80 the antibody concentration
[20] = molecular target: antibody P30(b) (Fucal Research product Mp-P30-9-AB); experiment: competitive inhibition ELISA, full-length P30 coated, 5 ug/mL P30(b) + peptide 2 at x10 the antibody concentration
[21] = molecular target: antibody P30(b) (Fucal Research product Mp-P30-9-AB); experiment: competitive inhibition ELISA, full-length P30 coated, 5 ug/mL P30(b) + peptide 2 at x20 the antibody concentration
[22] = molecular target: antibody P30(b) (Fucal Research product Mp-P30-9-AB); experiment: competitive inhibition ELISA, full-length P30 coated, 5 ug/mL P30(b) + peptide 2 at x40 the antibody concentration
[23] = molecular target: antibody P30(b) (Fucal Research product Mp-P30-9-AB); experiment: competitive inhibition ELISA, full-length P30 coated, 5 ug/mL P30(b) + peptide 2 at x80 the antibody concentration
[24] = molecular target: antibody P30(a) (Fucal Research product Mp-P30-3-AB); experiment: competitive inhibition ELISA, full-length P30 coated, 5 ug/mL P30(a) + peptide 2 at x160 the antibody concentration
[25] = molecular target: antibody P30(a) (Fucal Research product Mp-P30-3-AB); experiment: competitive inhibition ELISA, full-length P30 coated, 5 ug/mL P30(a) + peptide 2 at x320 the antibody concentration
[26] = molecular target: antibody P30(a) (Fucal Research product Mp-P30-3-AB); experiment: competitive inhibition ELISA, full-length P30 coated, 5 ug/mL P30(a) + peptide 2 at x640 the antibody concentration
[27] = molecular target: antibody P30(b) (Fucal Research product Mp-P30-9-AB); experiment: competitive inhibition ELISA, full-length P30 coated, 5 ug/mL P30(b) + peptide 2 at x160 the antibody concentration
[28] = molecular target: antibody P30(b) (Fucal Research product Mp-P30-9-AB); experiment: competitive inhibition ELISA, full-length P30 coated, 5 ug/mL P30(b) + peptide 2 at x320 the antibody concentration
[29] = molecular target: antibody P30(b) (Fucal Research product Mp-P30-9-AB); experiment: competitive inhibition ELISA, full-length P30 coated, 5 ug/mL P30(b) + peptide 2 at x640 the antibody concentration
[30] = molecular target: antibody P30(a) (Fucal Research product Mp-P30-3-AB); experiment: competitive inhibition ELISA, full-length P30 coated at 4 ng/mL, 5 ug/mL P30(a) + peptide 2 at 40 times the antibody amount
[31] = molecular target: antibody P30(b) (Fucal Research product Mp-P30-9-AB); experiment: competitive inhibition ELISA, full-length P30 coated at 10 ng/mL, 5 ug/mL P30(b) + peptide 2 at 40 times the antibody amount

For “antibody P30(a) (Fucal Research product Mp-P30-3-AB)”, the absorbance at 450 nm after subtracting the blank [1] was 0.403 Abs, the Color intensity (Abs) [2] was 0.411 Abs and the Color intensity (Abs) [3] was 0.411 Abs. It also gave a Color intensity after 15 min [4] of 251 mAbs, a Color intensity (mAbs) [5] of 41.8 mAbs and a Color intensity (mAbs) [6] of 28.7 mAbs. It also gave a Color intensity (mAbs) [7] of 180 mAbs, a Color intensity (mAbs) [8] of 117 mAbs and a Color intensity (mAbs) [9] of 51.7 mAbs. For the same molecule, the Color intensity (mAbs) [10] was 273 mAbs and the Color intensity (mAbs) [11] was 490 mAbs.

PGMAPRPGFPPQPGMAPR [Peptide 2 (SEQ ID NO: 7: …)] was tested, and the Color intensity after 15 min [12] was 96.7 mAbs, the Color intensity after 15 min [13] was 31.3 mAbs and the Color intensity (Abs) [14] was 0.401 Abs. It also gave a Percentage reduction of color intensity (%) [14] of 2%, a Color intensity (Abs) [15] of 0.199 Abs and a Percentage reduction of color intensity (%) [15] of 4%. For the same molecule, the Color intensity (Abs) [16] was 0.341 Abs, the Percentage reduction of color intensity (%) [16] was 17% and the Color intensity (Abs) [17] was 0.29 Abs. The Percentage reduction of color intensity (%) [17] was 29%, the Color intensity (Abs) [18] was 0.26 Abs and the Percentage reduction of color intensity (%) [18] was 37%. For the same molecule, the Color intensity (Abs) [19] was 0.199 Abs, the Percentage reduction of color intensity (%) [19] was 52% and the Color intensity (Abs) [20] was 0.184 Abs. The Percentage reduction of color intensity (%) [20] was 12%, the Color intensity (Abs) [21] was 0.186 Abs and the Percentage reduction of color intensity (%) [21] was 11%. The Color intensity (Abs) [22] was 0.163 Abs, the Percentage reduction of color intensity (%) [22] was 22% and the Color intensity (Abs) [23] was 0.133 Abs. The Percentage reduction of color intensity (%) [23] was 36%, the Color intensity (Abs) [24] was 0.172 Abs and the Percentage reduction of color intensity (%) [24] was 58%. It also gave a Color intensity (Abs) [25] of 0.16 Abs, a Percentage reduction of color intensity (%) [25] of 61% and a Color intensity (Abs) [26] of 0.18 Abs. It also gave a Percentage reduction of color intensity (%) [26] of 56%, a Color intensity (Abs) [27] of 0.125 Abs and a Percentage reduction of color intensity (%) [27] of 40%. For the same molecule, the Color intensity (Abs) [28] was 0.11 Abs, the Percentage reduction of color intensity (%) [28] was 47% and the Color intensity (Abs) [29] was 0.114 Abs. For the same molecule, the Percentage reduction of color intensity (%) [29] was 45%, the percentage reduction of absorbance [30] was greater than 30% and the percentage reduction of absorbance [31] was 22%.

— patent publication US20180172684A1
